Laboratory results: US20240285782A1, “METHODS FOR USING BIOADHESIVE AND STERIC INTERACTIONS OF COPOLYMERS WITH AT LEAST TWO MOIETIES TO MINIMIZE ADVERSE EFFECTS MEDIATED BY EXTERNAL INFLUENCES ON CELL, TISSUE, ORGAN SYSTEM, AND ORGANISM BIOLOGY” (priority 2021, published 2024)
Where two headings read alike, the source gives them in different places.

Columns and labels:
[1] = test system: HCE-T cells
[2] = test system: corneal cell; conditions: low dose exposure; cited from earlier work
[3] = cited from earlier work

Compound | toxicity (positive control, pilot evaluation FIG. 8) [1] | toxicity to cells, corneal cell death [2] | half-life ([3]; after the first infusion) | half-life ([3]; in steady state) | time to reach steady state ([3]; in vivo)
CCN(c1nc(N)c(C(=O)N=C(N)N)nc1Cl)C(C)C [EIPA, 5-(N-ethyl-N-isopropyl)amiloride] | toxic | toxic |  |  | 
Belnatomab mafodotin: ADC cited as an example for half-life |  |  | 12 days | 14 days | 70 days
